Experimental findings from the DeepSol protein solubility set are described below.

The series is described as follows: soluble on expression in E. coli; label from the status in PepcDB or PDB records.
As for “ARQENPCGPCSERRKHLFVQDPQTCKCSCKNTDSRCKARQLELNERTCRCDKPRR”, the “soluble on expression in E. coli” value was “soluble”. Turning to “MDFLQGDRGDYKSALGSLQQVGYGSVIAKIRLAFNATGSVLRKRVLKEEQIEETVAKELEERRRTWDVNNGQFDKFSQWYIEYRKNLWHKDDYLPWLLYENEISCLKLTFDVCERPPRRINYGGRNRYTCEN”, the “soluble on expression in E. coli” value is reported as “not soluble”.

Consider “MGSDKIHHHHHHMRLDEYISRDIAWCPGCGNFGIRTALMKALEELNVDPRQVVIVSGIGQAAKMPQYVGVNMFNGLHGRALPVATAIKTTNPNLLVIAESGDGCMYGEGGNHFIHTIRRNPDIVNIVHDNQVYGLTKGQASPTSLKGFKTPVQVDGVILEPFNPLAVAIALDASFVARTFIGDIEFTKDILKEAMKHKGYALVDILQPCVTFNKLNTYEWYRENTYYLKDHDPTDRELAFKRAIETEKLPLGIFYVNKNKETFEELARKGDRTPLYEYEVNFEKLKELIESKKS”, for which the “soluble on expression in E. coli” value is “not soluble”.

Turning to “MNVVRYTPWPGQAALQNEIKQVFDRFFEHNGDTDESAVVTAQWVPRVDIKEEPNQFVLYADLPGIDPADIEVQMDKGILSIKGERKTESSSQTEHFSRIERRYGSFHRRFALPDSADADGITASGSHGVLRILIPKQAATTPRRIQVGNAVSSDVALQSMLEHHHHHH”, the “soluble on expression in E. coli” value is reported as “soluble”.

For “MLEELGKVVEFKGKGVELHLDGQGEPFLYPYMEYFLEKASRMKGVEVVSIQSNGTLLTEEKISAIEDYVTRINLSLSSLDEKTAKTLHGAYSVKKVKEVAEMIASSKMDLLIAPVWVPGYNDREIPKIIEFALEIGAGKKYPPLGIQKYIPYRYGRKAGKSMPFKEFYRRLEEYEKEYGVKLVLGPEDFGMEKRPK”, the “soluble on expression in E. coli” value is reported as “not soluble”. As for “SPLDRDPAFRVITVTKETGLGLKILGGINRNEGPLVYIHEVIPGGDCYKDGRLKPGDQLVSINKESMIGVSFEEAKSIITRAKLRSESPWEIAFIR”, the entry is “soluble”. The value for “MNKIYIKNMVCDRCIMVVTNILSQLELKVAHIALGEIVLLCPPTEKQMQELLDQLQKVGFEIIDDKRSRIVEQIKTCIRELVHRKNGMLKTNLSDYLCENIHLDYSYLSGLFSENEGRTIEKYFIYQKIERVKELLVYDDMQLSEIAYIMNYSSVAHLSNQFKKVTGFTPTYFKQMSTQCRKPLDKL” was “not soluble”; that for “MGSDKIHHHHHHMISMDEFIEFVRGGPLGPIKKWGTKWSLWPVHLVTACCGAELAHAFACGYDGERIGALNYGIARQTNLIIVEGAITRKMAKVLRITWEQMPDPKFVIVMGACGLQGGIFWNGYHMVKPSDVVPVDFFIPGCPPTPEALLRGIRQLQFKIETGEAKTSATFPEVPLEAGRKPRVLPKSPKKISKAPAVIVNAPKEVDWEFGQKLVEEIKAKVEAKSVTITGKNRIAVKVESDYIPRAAMRLREMGFDHVKNVNVIDVPNEDKFIVEYHFSSYSVKELMPVIVNVFADIPRENPRVKSLASMFPSADYMEREMHDFFGVIFEGNPWMGRKFLLAPDAPEFPLRKDFKLEEEVYVR” was “not soluble”. As for “MAGAITHDHAAAAQGRQGGPLIVTEDVELLDDLLRLCAAAGARPEVHHTVPDGRGTWEAAPLVLVGDDAARRVRGAARRRGVVLVGRDQDDSGVWRRAVEIGADHVLLLPDGEQWLVDRIADVAEGVGRPALTVGVIGGRGGAGASTLACALAVTSARQGRRTLLVDADPLGGGLDVLLGGETAEGLRWPAFAASRGRVGGGALEESLPELHALRVLSWDRGDAVAVPPQAVRAVLAAARRRGGAVVVDLPRRVDEGAAEALAQVDLGVLVVPAELRAIAAAARVASAAGMVLGDLRVAVRGPYAPGLDDREVARLLGLPLLGEVPAEPPVPDGGVPPGGAARGPLARFCAVFWDRALVEAGGVLEHHHHHH”, the entry is “not soluble”; as for “KNVNRVLSAEALKPGMLLTGTVSSLEDHGYLVDIGVDGTRAFLPLLKAQEYIRQKNKGAKLKVGQYLNCIVEKVKGNGGVVSLSVGHSEVSTAIATEQQSWNLNNL”, “soluble”.

Regarding “DTIRWATEQAIANGTGEREYIKKLEPMLKELGWWGKAKDENGNEVQLGSPRRLRTILRTNKITAYHAARYAQQMENVDEQPYWRYVAVNDSRTRASHLALHGKIYRADDPIWQTMYPPNDWGCRCRVE”, the “soluble on expression in E. coli” value is listed as “not soluble”.

As to “GMEFLMKISHLDHLVLTVADIPTTTKFYEKVLGMKAVSFGSGRIALEFGHQKINLHQLGHEFEPKAQNVRTGSADLCFITDIDLSDAMEYVENQGVVIMEGPVKRTGAQGAITSFYFRDPDGNLIEVSTYSNT”, the “soluble on expression in E. coli” value is listed as “soluble”.

As for “MGSDKIHHHHHHMSTAKTLTLEMHLGDLMIGELSFDATADTFAVHYTKDWQQSGFPLSPTIPLDGTGTSNQISMFLVNLLPENKGLDYLIESLGVSKGNTFALIRAIGLDTAGAIAFVPKGALLPETQLRPIKAEEVIQRIEDPTMWPMEIWDGKPRLSVAGVQPKLNLFYNGKEFAFAEGTLSSTHIVKFEKYHHLVINEFITMRLAKVLGMNVANVDIVHFGRYKALCVERFDRRNIPGEQRVLRRHIVDSCQALGFSVSKKYERNFGTGRDVKDIREGVSFNRLFSLAAKCRNPVAAKQDMLQWALFNLLTGNADAHGKNYSFFMTPSGMEPTPWYDLVSVDMYEDFEQQLAMAIDDEFDPNSIYAYQLAAFMDGLGLPRNLLISNLTRIARRIPQAIAEVILMLPPLDEDEASFVAHYKTQLLARCERYLGFVDEVRDVEV”, the “soluble on expression in E. coli” value is given as “not soluble”.

On to “MASNPNDLPDFPEHEYAATQQVGEGVINGDLYLTSASGAIQKGTNTKVTLEPATSYMKAYYAKFGNLDAAKRDPDVQPPVLDPRRATYVREATTDQNGRFDFDHIPNGTYYISSELTWSAQSDGKTITEGGTVTKLVTVSGSQPQKVLLTR”, for which the “soluble on expression in E. coli” value is on record as “soluble”. As for “MRMRLMLLGGGNALGQALIRLGAEEDIGFLAPRPPQDGWDVASLTQLLDDTRPDALINLAYYFDWFQAETVSAARLTHQERSVERLAELCQHHNITLVQPSSYRVFDGSRATAYSEKDEPVPLGLRGQALWRIEQSVRATCPQHVLVRFGWLLDDSADGVLGRFLSRAKEPGELLLADDRRGNPTPVDDAARVIISIVKQLDCEAPLWGTYHYAGHEATTPLALGQAVLTEARLLHPLAIESPTAQAHAARPDAAEEPQHAVLACKKILHTFGIKPRAWRAGLPSLLDRYYRHV”, the “soluble on expression in E. coli” value is reported as “not soluble”. For “MRGLSLSPVVLPEVRREAGVELRKARLEDVDAIYWLIRYWAEKGLMLVRSHSHLYENIRDFWVLEDEDGQIVGTVALHVLWRDLAEIRGLAVHPTRQGQGLGRWLVLGAEREARDLGLPRVFAWTLQVNFFRALGYRVTSR”, the “soluble on expression in E. coli” value is “not soluble”. On to “MSLTITVLQGGNVLDLERGVLLEHHHVVIDGERIVEVTDRPVDLPNAQAIDVRGKTVMPGFIDCHVHVLASNANLGVNATQPNILAAIRSLPILDAMLSRGFTSVRDAGGADWSLMQAVETGLVSGPRIFPSGKALSQTGGHGDFRPRGDLLEPCSCCFRTGAIARVVDGVEGVRLAVREEIQKGATQIKIMASGGVASPTDPIANTQYSEDEIRAIVDEAEAANTYVMAHAYTGRAIARAVRCGVRTIEHGNLVDEAAAKLMHEHGAFVVPTLVTYDALAKHGAEFGMPPESVAKVASVQQKGRESLEIYANAGVKMGFGSDLLGEMHAFQSGEFRIRAEVLGNLEALRSATTVAAEIVNMQGQLGVIAVGAIADLVVLDGNPLEDIGVVADEGARVEYVLQRGTLVKRQAAGREGHHHHHH”, for which the “soluble on expression in E. coli” value was “soluble”. As for “MGSDKIHHHHHHMSDAHYDMHKRNGYSSDEPYPEIKVLGPNKYYAELLMDDYAGVSSEFTSVNQYLYHNFDLDETHRELSEMWINISITEMLHMEILAKTIRLLGGNPVYRGSTSSCGAYWNGGFVCYGNSICNRLKLDLHLEHVAINNYYKDISLIEDPYIKAILNRIILDEKLHVSLFEKAIEKYCK”, the entry is “not soluble”; as for “MSEKPAESAAAVADSATTTAPQSGKPETALPALIDTQATAETRALYRNLAKLRYKHLLFGHEDSLAYGVHWEGDMDRSDVRDVTGANPAVYGWELGGLELGHTANLDAVNFEKMQHWIKAGYSRGGVITISWHVFNPVSGGNSWDKTPAVHELIPGGARHATLKAYLDTFVAFNEGLADVDAQGNKHYPPIIFRPWHEHNGDWFWWGKGHASEQDYIALWRFTVHYLRDEKKLRNLIYAYSPDRSRIDMANFEAGYLYGYPGDAYVDIIGLDNYWDVGHEANTASADEQKAALTASLKQLVQIARSKGKIAALTETGNNRLTIDNFWTERLLGPISADADASEIAYVMVWRNANLAREKSEQFFAPFPGQATADDFKRFYQSEVVLFEDELPPLYR”, “soluble”; as for “QIKDHLIIVGFGFSGKTISKAAKAAGIPYLIIEMNPEIVQHEKAKGEKIQYGDATFGAVLEHAGIKNARVLVTGIADSSSTGKIVEKAKELNPNICVIVKVHDLQEMKRLNSMGADEIIPEEYETSVEIFVRLLEKYLVPRENIEK”, “not soluble”. As for “MSDGHHNGHEHVPSRQRRRFPGISSRAYEHPADRSALVALRKLSGFDTVFKALSGLLPERSLRLLFLSDSVRVSDRQFAHLNVMLRDACYILDLEKVPPMYVNQDPVPNAMCIGLDEPIIVVTTGLVELLDEEEMRAVVGHEVGHALSGHAVYRTILLFLTSLAVRVAWIPLGNVAIMAIVTALREWFRKSELSADRAGLLVGQDLQASMRGLMKIAGGNHLHEMNVDAFLEQAEEYEAGGDLRDSVLKILNVLPRSHPFTTVRAAELKKWAASRDYQRIMDGHYPRRDEDRNTSVRDSFRESASHYATHVRSSKDPLMKLVNDIAGGAGDLGDRMRRGFGGFTGSQPRPPEDDGGPAQGPGGSGRPDGPDRPEGPEGSGGSEEPGGDGPESPRDGSPRDGALEHHHHHH”, the entry is “not soluble”; as for “MDYTEESAQIPEMAEKLGIPTSRKETKTLELPVSIDFRNWCSPIEDQMDLGSCTAHAGVGVVEYFERRAFGKHIDGSRFFVYKTTRNLMGVKGDTGAWLRNTMGALALCGVPPEKYFPYTSRKTPGPDGEPTFDDEPSSFVYSLADNFEALNYFCHDPQGMNLPPEDVILSVKKYLAAGIPSMFGFYGFPSFKDTDVKGGIPFPGPDERSIWGHAVVAVGYDDNMKIRNTLSNKETTGAFLIRNSWGTAWGDKGYGWLPYEYALNKFALDFWSLISMKWVETGNFGLELESSRSRARETLSRDMPLPHALEHHHHHH”, “not soluble”; as for “MSTSQEISDPAQATSSAQVKWPRYLEATLGFDNHWHPAAFDHELAEGEFVAVTMLGEKVLLTRAKGEVKAIADGCAHRGVPFSKEPLCFKAGTVSCWYHGWTYDLDDGRLVDVLTSPGSPVIGKIGIKVYPVQVAQGVVFVFIGDEEPHALSEDLPPGFLDEDTHLLGIRRTVQSNWRLGVENGFDTTHIFMHRNSPWVSGNRLAFPYGFVPADRDAMQVYDENWPKGVLDRLSENYMPVFEATLDGETVLSAELTGEEKKVAAQVSVWLPGVLKVDPFPDPTLIQYEFYVPISETQHEYFQVLQRKVEGPEDVKTFEVEFEERWRDDALHGFNDDDVWAREAQQEFYGERDGWSKEQLFPPDMCIVKWRTLASERGRGVRAARVEMSHHHHHH”, “soluble”.
